According to patent US20250144222A1, “Bifunctional Compounds Targeting the Cation-Independent Mannose 6- Phosphate Receptor” (NANOMEDSYN, priority 2022, published 2025):

Experiments:
[1] = Pharmacokinetic profile in mice after single i.v. bolus; type: in vivo, C57BL/6J mice; details: single i.v. bolus 4 mg/kg, 21 days
Method: Mice were weighed before injection and throughout the experiment to monitor their health. Blood samples taken at 4 and 1, 2, 3, 7, 10, 14, 17 and 21 days post-injection were collected in tubes containing heparin and centrifuged at 3,000 g for 15 min, and the plasma was stored at −20° C. until measurement. Mice were sacrificed 21 days after injection.
The therapeutic antibody was detected using an HRP-conjugated anti-human IgG antibody specific for the Fc fragment, which was then quantified by a colorimetric assay with the OPD substrate and absorbance measure at 450 nm.

[2] = target: T1, b-CI-M6PR (UniProt P08169); assay: Competitive binding of biotinylated CI-M6PR to adsorbed pentamannose 6-phosphate; details: competitive assay with pentamannose 6-phosphate ligand; read-out: Affinity for b-CI-M6PR (IC50) (converted)
T1 construct: fused on or other part: Chemical biotin label (biotin N-hydroxysuccinimide) for streptavidin-peroxidase detection; no fused protein
Method: Briefly, CI-M6PR, purified on a phosphomannane-sepharose affinity column, was biotinylated with biotin N-hydroxysuccinimide. […] The b-CI-M6PR bound to adsorbed PMP was then determined using streptavidin conjugated to the peroxidase and its substrate, o-phenylenediamine dihydrochloride (OPD), by optical density measurements. The 100% value corresponds to the concentration of b-CI-M6PR bound to PMP adsorbed in the absence of a competitor.

Row | Compound | adverse clinical events [1] | IC50 [2]
1 | adalimumab [mAb2, reference compound] | No adverse clinical events | –
2 | O=C[C@@H](O)[C@@H](O)[C@H](O)[C@H](O)COP(=O)(O)O [M6P, mannose 6-phosphate] | – | 20 µM
3 | infliximab [mAb1, reference compound] | No adverse clinical events | –
